According to US8367390B2, “Galactanase variants” (Novozymes A/S, priority 2002, dated 2013):

Experiment: Activity with ONPG, release of o-nitrophenol (ONP) at 405 nm
Format: biochemical
Procedure: The activity of HIGAL and MTGAL with ONPG was tested by mixing 200 microliters (normally 5.5 mg/ml) ONPG in 50 mM sodium acetate, 1 mM CaCl2, 0.01% Triton X-100, pH 6.5 with 25 microliters galactanase (normally 1 mg/ml) in the well of a microtiter plate. Release of o-nitrophenol (ONP) was measured at room temperature at 405 nm every 10 seconds normally for 30 min on a SpectraMaxPlus (Molecular Devices). Effects on the observed release of ONP was studied with varied enzyme concentration, ONPG concentration and with addition of galactose (Gal), beta-1,4-galactobiose (Gal2) (Megazyme), beta-1,4-galactotriose (Gal3), beta-1,4-galactotetraose (Gal4), glucose (Glu), arabinose (Ara), galacturonic acid (GalA), maltose (Mal) or maltotriose (Mal3).
In Tables 8-11 below, incubation times required to increase the observed absorbance at 405 nm by given amounts are listed. Cells marked ‘n.r.’ indicate that the increase in absorbance was not reached in the experiment. In general, the initial increase in absorbance at 405 nm was very slow, but after a lag phase the rate of ONP release often increased drastically—often approximately exponentially. The most likely explanation for the observed kinetics is that ONPG reacts with the enzyme to give an enzyme-galactosyl intermediate which hydrolyses very slowly. Instead, the Gal of the intermediate is released by transglycosylation, initially with ONPG or added sugar as acceptor. In cases where the rate of ONP release increases, these transglycosylation products are even better acceptors than the initial ones. […] More likely, Gal inhibits the subsequent transglycosylation, which requires binding of ONPG to the +1 and +2 subsites, e.g., by binding to the +2 subsite. With 50 mg/ml Gal added (results not shown) release of ONP was even slower with only insignificant increase of absorbance at 405 nm in 30 min.

[1] = Table 8, enzyme 28 μg/ml, ONPG 5 mg/ml, no sugar
[2] = Table 8, enzyme 55 μg/ml, ONPG 5 mg/ml, Gal 5 mg/ml
[3] = Table 8, enzyme 55 μg/ml, ONPG 5 mg/ml, no sugar
[4] = Table 8, enzyme 110 μg/ml, ONPG 5 mg/ml, Gal 5 mg/ml
[5] = Table 8, enzyme 110 μg/ml, ONPG 5 mg/ml, no sugar
[6] = Table 9, enzyme 110 μg/ml, ONPG 1.25 mg/ml
[7] = Table 9, enzyme 110 μg/ml, ONPG 2.5 mg/ml
[8] = Table 9, enzyme 110 μg/ml, ONPG 5 mg/ml
[9] = Table 9, enzyme 110 μg/ml, ONPG 10 mg/ml
[10] = Table 10, enzyme 110 μg/ml, ONPG 5 mg/ml, Gal2 0.05 mg/ml
[11] = Table 10, enzyme 110 μg/ml, ONPG 5 mg/ml, Gal2 0.5 mg/ml
[12] = Table 10, enzyme 110 μg/ml, ONPG 5 mg/ml, Gal3 0.05 mg/ml

B1: HIGAL: GH Family 53 galactanase from Humicola insolens, SEQ ID NO: 2 (wild type parent) (protein, listed as Humicola insolens)
chain: ALQYKGVDWSSVMVEERAGVRYKNVNGQEKPLEYILAENGVNMVRQRVWVNPWDGNYNLDYNIQLARRAKAAGLGLYINFHYSDTWADPAHQTTPAGWPSDINNLAWKLYNYTLDSMNRFADAGIQVDIVSIGNEITQGLLWPLGKTNNWYNIARLLHSAAWGVKDSRLNPKPKIMVHLDNGWNWDTQNWWYTNVLSQGPFEMSDFDMMGVSFYPFYSASATLDSLRRSLNNMVSRWGKEVAVVETNWPTSCPYPRYQFPADVRNVPFSAAGQTQYIQSVANVVSSVSKGVGLFYWEPAWIHNANLGSSCADNTMFTPSGQALSSLSVFHRI
modifications: mat_peptide (1)..()
In the case of B1, the “Effect of Ara on ONP release” value (Ara 5 mg/ml) is reported as “about three times slower ONP release”, the “Slowing of ONP release by addition of Gal” value (Gal 5 mg/ml) is reported as “a factor of three” and the “Effect of GalA on ONP release” value (GalA 5 mg/ml) is reported as “weak inhibitory effect”. The “Effect of GalA on ONP release” value (GalA 50 mg/ml) was “slows ONP release by about a factor two”, the “Effect of Glu on ONP release” value (Glu 5 mg/ml) was “slight inhibitory effect” and the “ONP release in 30 min” value (Glu 50 mg/ml, results not shown) was less than 0.02. The “Effect of Mal or Mal3 on ONP release” value (Mal or Mal3 5 mg/ml) was “no significant effects on ONP release”, the “ONP release compared at identical enzyme dosage” value (Table 8) was “faster than MTGAL” and the “Time (min) to increase A405 by: 0.025” value [1] was 41.4 min. For the same molecule, the “Time (min) to increase A405 by: 0.05” value [1] was 46.5 min, the “Time (min) to increase A405 by: 0.1” value [1] was 51.0 min and the “Time (min) to increase A405 by: 0.2” value [1] was 56.5 min. For the same molecule, the “Time (min) to increase A405 by: 0.4” value [1] was “n.r”, the “Time (min) to increase A405 by: 0.8” value [1] was “n.r” and the “Time (min) to increase A405 by: 1.6” value [1] was “n.r”. The “Time (min) to increase A405 by: 3.2” value [1] was “n.r”, the “Time (min) to increase A405 by: 0.025” value [2] was 57.0 min and the “Time (min) to increase A405 by: 0.05” value [2] was “n.r”. For the same molecule, the “Time (min) to increase A405 by: 0.1” value [2] was “n.r”, the “Time (min) to increase A405 by: 0.2” value [2] was “n.r” and the “Time (min) to increase A405 by: 0.4” value [2] was “n.r”. For the same molecule, the “Time (min) to increase A405 by: 0.8” value [2] was “n.r”, the “Time (min) to increase A405 by: 1.6” value [2] was “n.r” and the “Time (min) to increase A405 by: 3.2” value [2] was “n.r”. For the same molecule, the “Time (min) to increase A405 by: 0.025” value [3] was 20.4 min, the “Time (min) to increase A405 by: 0.05” value [3] was 22.9 min and the “Time (min) to increase A405 by: 0.1” value [3] was 25.4 min. The “Time (min) to increase A405 by: 0.2” value [3] was 28.0 min, the “Time (min) to increase A405 by: 0.4” value [3] was 30.9 min and the “Time (min) to increase A405 by: 0.8” value [3] was 32.0 min. For the same molecule, the “Time (min) to increase A405 by: 1.6” value [3] was 35.0 min, the “Time (min) to increase A405 by: 3.2” value [3] was 37.9 min and the “Time (min) to increase A405 by: 0.025” value [4] was 32.0 min. For the same molecule, the “Time (min) to increase A405 by: 0.05” value [4] was 35.7 min, the “Time (min) to increase A405 by: 0.1” value [4] was 41.5 min and the “Time (min) to increase A405 by: 0.2” value [4] was 46.7 min. The “Time (min) to increase A405 by: 0.4” value [4] was 52.7 min, the “Time (min) to increase A405 by: 0.8” value [4] was 59.0 min and the “Time (min) to increase A405 by: 1.6” value [4] was “n.r”. For the same molecule, the “Time (min) to increase A405 by: 3.2” value [4] was “n.r”, the “Time (min) to increase A405 by: 0.025” value [5] was 9.0 min and the “Time (min) to increase A405 by: 0.05” value [5] was 10.3 min. The “Time (min) to increase A405 by: 0.1” value [5] was 11.5 min, the “Time (min) to increase A405 by: 0.2” value [5] was 12.7 min and the “Time (min) to increase A405 by: 0.4” value [5] was 13.8 min. The “Time (min) to increase A405 by: 0.8” value [5] was 15.0 min, the “Time (min) to increase A405 by: 1.6” value [5] was 15.0 min and the “Time (min) to increase A405 by: 3.2” value [5] was 17.7 min. For the same molecule, the “Time (min) to increase A405 by: 0.025” value [6] was 28.7 min, the “Time (min) to increase A405 by: 0.05” value [6] was “n.r” and the “Time (min) to increase A405 by: 0.1” value [6] was “n.r”. The “Time (min) to increase A405 by: 0.2” value [6] was “n.r”, the “Time (min) to increase A405 by: 0.4” value [6] was “n.r” and the “Time (min) to increase A405 by: 0.8” value [6] was “n.r”. For the same molecule, the “Time (min) to increase A405 by: 1.6” value [6] was “n.r”, the “Time (min) to increase A405 by: 3.2” value [6] was “n.r” and the “Time (min) to increase A405 by: 0.025” value [7] was 9.7 min. For the same molecule, the “Time (min) to increase A405 by: 0.05” value [7] was 11.3 min, the “Time (min) to increase A405 by: 0.1” value [7] was 12.7 min and the “Time (min) to increase A405 by: 0.2” value [7] was 14.0 min. For the same molecule, the “Time (min) to increase A405 by: 0.4” value [7] was 15.5 min, the “Time (min) to increase A405 by: 0.8” value [7] was 17.3 min and the “Time (min) to increase A405 by: 1.6” value [7] was 19.5 min. For the same molecule, the “Time (min) to increase A405 by: 3.2” value [7] was 22.8 min, the “Time (min) to increase A405 by: 0.025” value [8] was 6.0 min and the “Time (min) to increase A405 by: 0.05” value [8] was 8.0 min. For the same molecule, the “Time (min) to increase A405 by: 0.1” value [8] was 9.2 min, the “Time (min) to increase A405 by: 0.2” value [8] was 10.2 min and the “Time (min) to increase A405 by: 0.4” value [8] was 11.3 min. The “Time (min) to increase A405 by: 0.8” value [8] was 12.5 min, the “Time (min) to increase A405 by: 1.6” value [8] was 13.8 min and the “Time (min) to increase A405 by: 3.2” value [8] was 15.3 min. The “Time (min) to increase A405 by: 0.025” value [9] was 6.3 min, the “Time (min) to increase A405 by: 0.05” value [9] was 7.7 min and the “Time (min) to increase A405 by: 0.1” value [9] was 8.8 min. For the same molecule, the “Time (min) to increase A405 by: 0.2” value [9] was 10.0 min, the “Time (min) to increase A405 by: 0.4” value [9] was 11.2 min and the “Time (min) to increase A405 by: 0.8” value [9] was 12.3 min. The “Time (min) to increase A405 by: 1.6” value [9] was 13.5 min, the “Time (min) to increase A405 by: 3.2” value [9] was 14.7 min and the “Initial rate (mOD/min)” value [10] was 2 mOD/min. For the same molecule, the “Time (min) to increase A405 by: 0.025” value [10] was 5.5 min, the “Time (min) to increase A405 by: 0.05” value [10] was 6.8 min and the “Time (min) to increase A405 by: 0.1” value [10] was 8.2 min. For the same molecule, the “Time (min) to increase A405 by: 0.2” value [10] was 9.5 min, the “Time (min) to increase A405 by: 0.4” value [10] was 10.7 min and the “Time (min) to increase A405 by: 0.8” value [10] was 11.8 min. For the same molecule, the “Time (min) to increase A405 by: 1.6” value [10] was 13.3 min, the “Time (min) to increase A405 by: 3.2” value [10] was 15.2 min and the “Initial rate (mOD/min)” value [11] was 6 mOD/min. The “Time (min) to increase A405 by: 0.025” value [11] was 2.7 min, the “Time (min) to increase A405 by: 0.05” value [11] was 3.5 min and the “Time (min) to increase A405 by: 0.1” value [11] was 4.8 min. The “Time (min) to increase A405 by: 0.2” value [11] was 6.0 min, the “Time (min) to increase A405 by: 0.4” value [11] was 7.2 min and the “Time (min) to increase A405 by: 0.8” value [11] was 8.3 min. For the same molecule, the “Time (min) to increase A405 by: 1.6” value [11] was 9.7 min, the “Time (min) to increase A405 by: 3.2” value [11] was 11.0 min and the “Initial rate (mOD/min)” value [12] was 40 mOD/min. For the same molecule, the “Time (min) to increase A405 by: 0.025” value [12] was 0.5 min, the “Time (min) to increase A405 by: 0.05” value [12] was 1.0 min and the “Time (min) to increase A405 by: 0.1” value [12] was 1.7 min. For the same molecule, the “Time (min) to increase A405 by: 0.2” value [12] was 2.3 min, the “Time (min) to increase A405 by: 0.4” value [12] was 3.3 min and the “Time (min) to increase A405 by: 0.8” value [12] was 4.8 min. The “Time (min) to increase A405 by: 1.6” value [12] was 6.3 min and the “Time (min) to increase A405 by: 3.2” value [12] was 7.7 min.
